B1: Retinoblastoma-associated protein (Homo sapiens), P06400 (parent)
chain: MPPKTPRKTAATAAAAAAEPPAPPPPPPPEEDPEQDSGPEDLPLVRLEFEETEEPDFTALCQKLKIPDHVRERAWLTWEKVSSVDGVLGGYIQKKKELWGICIFIAAVDLDEMSFTFTELQKNIEISVHKFFNLLKEIDTSTKVDNAMSRLLKKYDVLFALFSKLERTCELIYLTQPSSSISTEINSALVLKVSWITFLLAKGEVLQMEDDLVISFQLMLCVLDYFIKLSPPMLLKEPYKTAVIPINGSPRTPRRGQNRSARIAKQLENDTRIIEVLCKEHECNIDEVKNVYFKNFIPFMNSLGLVTSNGLPEVENLSKRYEEIYLKNKDLDARLFLDHDKTLQTDSIDSFETQRTPRKSNLDEEVNVIPPHTPVRTVMNTIQQLMMILNSASDQPSENLISYFNNCTVNPKESILKRVKDIGYIFKEKFAKAVGQGCVEIGSQRYKLGVRLYYRVMESMLKSEEERLSIQNFSKLLNDNIFHMSLLACALEVVMATYSRSTSQNLDSGTDLSFPWILNVLNLKAFDFYKVIESFIKAEGNLTREMIKHLERCEHRIMESLAWLSDSPLFDLIKQSKDREGPTDHLESACPLNLPLQNNHTAADMYLSPVRSPKKKGSTTRVNSTANAETQATSAFQTQKPLKSTSLSLFYKKVYRLAYLRLNTLCERLLSEHPELEHIIWTLFQHTLQNEYELMRDRHLDQIMMCSMYGICKVKNIDLKFKIIVTAYKDLPHAVQETFKRVLIKEEEYDSIIVFYNSVFMQRLKTNILQYASTRPPTLSPIPHIPRSPYKFPSSPLRIPGGNIYISPLKSPYKISEGLPTPTKMTPRSRILVSIGESFGTSEKFQKINQMVCNSDRVLKRSAEGSNPPKPLKKLRFDIEGSDEADGSKHLPGESKFQQKLAEMTSTRTRMQKQKMNDSMDTSNKEEK

Columns and labels:
e2f1_human E2F1, Q01094 [1] = variants of: B1; details: with e2f1_human E2F1, Q01094
ve7_hpv16 E7, P03129 [2] = variants of: B1; details: with ve7_hpv16 E7, P03129
e2f1_human E2F1, Q01094 [3] = variants of: B1; details: with e2f1_human E2F1, Q01094; remark: listed apart in the source
ve7_hpv16 E7, P03129 [4] = variants of: B1; details: with ve7_hpv16 E7, P03129; remark: listed apart in the source

Sequence of e2f1_human E2F1, Q01094 (Q01094 whole entry): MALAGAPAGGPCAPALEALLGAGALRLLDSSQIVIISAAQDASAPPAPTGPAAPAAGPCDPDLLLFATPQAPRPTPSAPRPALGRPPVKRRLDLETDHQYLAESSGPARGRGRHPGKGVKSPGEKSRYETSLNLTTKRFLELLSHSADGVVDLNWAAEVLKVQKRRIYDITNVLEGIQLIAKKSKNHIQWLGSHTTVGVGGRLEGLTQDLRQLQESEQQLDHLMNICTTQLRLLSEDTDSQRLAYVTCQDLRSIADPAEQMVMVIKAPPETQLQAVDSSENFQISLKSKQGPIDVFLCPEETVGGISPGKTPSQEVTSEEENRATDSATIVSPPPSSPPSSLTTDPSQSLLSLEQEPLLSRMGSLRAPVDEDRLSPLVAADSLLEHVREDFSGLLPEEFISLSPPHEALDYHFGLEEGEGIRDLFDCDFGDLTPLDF
Sequence of ve7_hpv16 E7, P03129 (P03129 whole entry): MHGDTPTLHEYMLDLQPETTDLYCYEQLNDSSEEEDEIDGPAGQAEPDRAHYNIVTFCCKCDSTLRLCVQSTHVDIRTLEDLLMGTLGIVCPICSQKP

| Variant | effect of a mutation on the interaction (e2f1_human E2F1, Q01094 [1]) | effect of a mutation on the interaction (ve7_hpv16 E7, P03129 [2]) | effect of a mutation on the interaction (e2f1_human E2F1, Q01094 [3]) | effect of a mutation on the interaction (ve7_hpv16 E7, P03129 [4]) |
| --- | --- | --- | --- | --- |
| E675Q | decreasing interaction strength | decreasing interaction strength | – | – |
| K462E | decreasing interaction strength | decreasing interaction strength | – | – |
| K462T | decreasing interaction strength | decreasing interaction strength | – | – |
| I679F | decreasing interaction strength | decreasing interaction strength | – | – |
| R668H | increasing interaction strength | decreasing interaction strength | with no effect | – |
| R668C | increasing interaction strength | increasing interaction strength | decreasing interaction strength | decreasing interaction strength |
| T620M | decreasing interaction strength | decreasing interaction strength | – | – |
| Y606C | decreasing interaction strength | decreasing interaction strength | – | – |
| L572I | decreasing interaction strength | increasing interaction strength | – | decreasing interaction strength |
| S648T | decreasing interaction strength | decreasing interaction strength | – | – |
| H585Y | decreasing interaction strength | decreasing interaction strength | – | – |
| A490V | decreasing interaction strength | decreasing interaction strength | – | – |
| A490S | decreasing interaction strength | decreasing interaction strength | – | – |
| A490T | decreasing interaction strength | decreasing interaction strength | disrupting interaction strength | – |
| H686Y | decreasing interaction strength | with no effect | – | decreasing interaction strength |
| P595L | decreasing interaction strength | decreasing interaction strength | – | – |
| K548N | disrupting interaction strength | decreasing interaction strength | – | – |
| D697E | decreasing interaction strength | decreasing interaction strength | disrupting interaction strength | – |
| M546I | increasing interaction strength | decreasing interaction strength | – | – |
| S463L | decreasing interaction strength | decreasing interaction strength | – | – |
| E539D | decreasing interaction strength | decreasing interaction strength | disrupting interaction strength | – |

| Variant | effect of a mutation on the interaction (e2f1_human E2F1, Q01094 [1]) | effect of a mutation on the interaction (ve7_hpv16 E7, P03129 [2]) | effect of a mutation on the interaction (e2f1_human E2F1, Q01094 [3]) | effect of a mutation on the interaction (ve7_hpv16 E7, P03129 [4]) |
| --- | --- | --- | --- | --- |
| S671F | decreasing interaction strength | decreasing interaction strength | – | – |
| M695I | decreasing interaction strength | decreasing interaction strength | disrupting interaction strength | – |
| E533K | disrupting interaction strength | decreasing interaction strength | – | – |
| H699P | decreasing interaction strength | decreasing interaction strength | – | – |
| S612P | decreasing interaction strength | decreasing interaction strength | – | – |
| H673Y | decreasing interaction strength | decreasing interaction strength | – | – |
| H673P | decreasing interaction strength | decreasing interaction strength | disrupting interaction strength | – |
| S588F | decreasing interaction strength | with no effect | – | decreasing interaction strength |
| V654L | decreasing interaction strength | decreasing interaction strength | – | – |
| S474N | decreasing interaction strength | decreasing interaction strength | – | – |
| S474R | disrupting interaction strength | with no effect | – | decreasing interaction strength |
| S474I | disrupting interaction strength | decreasing interaction strength | – | – |
| A488V | decreasing interaction strength | decreasing interaction strength | – | – |
| H555Y | disrupting interaction strength | decreasing interaction strength | – | – |
| T664A | decreasing interaction strength | decreasing interaction strength | – | – |
| E492Q | decreasing interaction strength | decreasing interaction strength | – | – |
| Q444R | decreasing interaction strength | decreasing interaction strength | – | – |
| Q444L | with no effect | increasing interaction strength | decreasing interaction strength | – |
| T687I | decreasing interaction strength | decreasing interaction strength | – | – |
| E440K | increasing interaction strength | with no effect | decreasing interaction strength | decreasing interaction strength |
| D604G | decreasing interaction strength | decreasing interaction strength | – | – |

| Variant | effect of a mutation on the interaction (e2f1_human E2F1, Q01094 [1]) | effect of a mutation on the interaction (ve7_hpv16 E7, P03129 [2]) | effect of a mutation on the interaction (e2f1_human E2F1, Q01094 [3]) | effect of a mutation on the interaction (ve7_hpv16 E7, P03129 [4]) |
| --- | --- | --- | --- | --- |
| E554K | disrupting interaction strength | decreasing interaction strength | – | – |
| T638S | with no effect | decreasing interaction strength | decreasing interaction strength | – |
| E693A | decreasing interaction strength | decreasing interaction strength | – | – |
| S534R | disrupting interaction strength | increasing interaction strength | – | decreasing interaction strength |
| R621S | decreasing interaction strength | decreasing interaction strength | – | – |
| R621H | decreasing interaction strength | decreasing interaction strength | – | – |
| R621P | decreasing interaction strength | decreasing interaction strength | – | – |
| R451S | decreasing interaction strength | decreasing interaction strength | – | – |
| R451C | decreasing interaction strength | decreasing interaction strength | – | – |
| R451H | decreasing interaction strength | decreasing interaction strength | – | – |
| D584Y | decreasing interaction strength | decreasing interaction strength | – | – |
| R556Q | decreasing interaction strength | with no effect | – | decreasing interaction strength |
| Q504E | decreasing interaction strength | with no effect | – | decreasing interaction strength |
| S443L | decreasing interaction strength | decreasing interaction strength | – | – |
| R656W | decreasing interaction strength | decreasing interaction strength | – | – |
| R656Q | disrupting interaction strength | decreasing interaction strength | – | – |
| K530I | disrupting interaction strength | decreasing interaction strength | – | – |
| L550I | decreasing interaction strength | increasing interaction strength | – | – |
| R611S | decreasing interaction strength | with no effect | – | decreasing interaction strength |
| A525G | decreasing interaction strength | decreasing interaction strength | – | – |

Reference: IntAct's records for PubMed 39938803
